Data taken from patent US20110045570.

How the values were obtained:
[1] = biological target: T1, N-methoxysuccinyl-Ala-Ile-Pro-Met-p-nitroanilide
T1 chain: AIPM

[2] = biological target: T2, N-succinyl-Gly-Gly-Phe-p-nitroanilide
T2 chain: GGF

[3] = biological target: acidic insulin B-chain
[4] = biological target: T3, butyroxycarboxy-Leu-Ser-Thr-Arg-p-nitroanilide
T3 chain: LSTR

[5] = biological target: T4, N-succinyl-Ala-Ala-Ala-p-nitroanilide
T4 chain: AAA

[6] = biological target: T5, N-carboxybenzoxy-Phe-Val-Arg-p-nitroanilide
T5 chain: FVR

[7] = biological target: T6, N-succinyl-Ala-Ala-Pro-Met-p-nitroanilide
T6 chain: AAPM

[8] = biological target: T7, N-succinyl-Ala-Ala-p-nitroanilide
T7 chain: AA

[9] = biological target: T8, N-succinyl-Ala-Ala-Val-Ala-p-nitroanilide
T8 chain: AAVA

[10] = biological target: T9, N-succinyl-Ala-Ala-Pro-Phe-p-nitroanilide
T9 chain: AAPF

[11] = biological target: T10, N-carbobenzoxy-Pro-citrulline-p-nitroanilide
T10 chain: P

[12] = biological target: T11, N-glutaryl-Ala-Ala-Pro-Leu-p-nitroanilide
T11 chain: AAPL

[13] = biological target: T12, N-p-tosyl-Gly-Pro-Lys-p-nitroanilide
T12 chain: GPK

B1: alkaline protease ALTP (protein)
chain: AQSTPWGVTRVQAPNVWNRGFTGSGVRVAVLDTGIHSSHEDLTVSGGYSVFGDSPYNDVQGHGTHVAGTIAARNNSVGVIGVAYNAQLYAVKVLNNQGSGTLAGIAQGIEWARQNNMHVINMSLGGTSGSTTLQNAVNAAYNAGILVVAAAGNSGNSAGTGDNVGFPARYPNAMAVAATTSGNVRASFSSTGPAVEIAAPGQDINSTYPTNTYRSLNGTSMAAPHVAGVAALLKSARPAVTAAGIRNAMNSTALNLGNSNWYGNGLVRANNALDMVLSY
Relative activity (%) [1]: 90%
activity to synthetic substrate (p-nitroaniline liberated) [2]: It showed activity to ... N-succinyl-Gly-Gly-Phe-p-nitroanilide (GGF)
initial cleavage site (LC/MS/MS of digestion fragments) [3]: alkaline protease ALTP of the invention first cleaves Leu-Tyr
peptide bonds cleaved within 24 hours (300 ng enzyme, LC/MS/MS) [3]: 26 peptide bonds of 29 peptide bonds except Phe-Val and Thr-Pro-Lys bonds are cleaved within 24 hours
activity to synthetic substrate (p-nitroaniline liberated) [4]: It showed activity to, besides the foregoing synthetic substrates, butyroxycarboxy-Leu-Ser-Thr-Arg-p-nitroanilide (LSTR)
activity to synthetic substrate (p-nitroaniline liberated) [5]: It showed activity to ... N-succinyl-Ala-Ala-Ala-p-nitroanilide (AAA)
activity to synthetic substrate (p-nitroaniline liberated) [6]: It showed activity to ... N-carboxybenzoxy-Phe-Val-Arg-p-nitroanilide (Z-FVR)
Relative activity (%) [7]: 74%
activity to synthetic substrate (p-nitroaniline liberated) [8]: It showed activity to ... N-succinyl-Ala-Ala-p-nitroanilide (AA)
Relative activity (%) [9]: 4.6%
Relative activity (%) [10]: 100%
activity to synthetic substrate (p-nitroaniline liberated) [11]: It showed activity to ... N-carbobenzoxy-Pro-citrulline-p-nitroanilide (CBZ-Pro-Cit)
Relative activity (%) [12]: 91%
activity to synthetic substrate (p-nitroaniline liberated) [13]: It showed activity to ... N-p-tosyl-Gly-Pro-Lys-p-nitroanilide (To-GPK)
